Data reported in patent US20200247886A1 (ZLIP, published 2020).

Key:
[1] = target: T1, human CD47 expressed on cells (CD47 expressing CHO cells, Jurkat, HL60, DLD1, Raji) (human, UniProt Q08722 19-292); assay: flow cytometry on DLD1 cells, Fab, frequency
T1 construct: also called CHO-CD47; IAP

His-tagged CD47 [2] = target: T2, His-tagged CD47 (Homo sapiens (Human), UniProt Q08722 19-139, limits assumed); assay: flow cytometry blocking assay: His-tagged CD47 with Fab on SIRPα-expressing CHO cells (SIRPα is the blocked ligand), anti-His-APC, MFI
T2 construct: not shown: His tag

[3] = target: T1, human CD47 expressed on cells (CD47 …); assay: EC50 (nM) as grade, flow cytometry, Fab on HL60 cells; legend ++: >1 nM and <7 nM
[4] = target: T3, biotin labelled polyhistidine tagged CD47 protein (Novoprotein, Cat#321) (human, UniProt Q08722 19-139, biotin labelled (site not stated)); assay: flow cytometry blocking assay: biotinylated CD47 with Fab on SIRPα-expressing CHO cells (SIRPα is the blocked ligand), frequency
T3 construct: Bought protein; also called biotinylated CD47; biotinylated human CD47 protein; not shown: polyhistidine tag

His-tagged CD47 [5] = target: T2, His-tagged CD47; assay: flow cytometry blocking assay: His-tagged CD47 with Fab on SIRPα-expressing CHO cells (SIRPα is the blocked ligand), anti-His-APC, frequency
[6] = target: T1, human CD47 expressed on cells (CD47 …); assay: EC50 (nM) as grade, flow cytometry, Fab on DLD1 cells; legend +++: <5 nM
His-tagged CD47 [7] = target: T2, His-tagged CD47; assay: IC50 (nM) MFI as grade, blocking His-tagged CD47 binding to SIRPα-CHO cells; legend +++: <2 nM
[8] = target: T3, biotin labelled polyhistidine tagged …; assay: IC50 (nM) as grade, Fab blocking biotinylated CD47 binding to SIRPα-CHO cells; legend +++: <10 nM
[9] = target: T1, human CD47 expressed on cells (CD47 …); assay: flow cytometry on HL60 cells, Fab, frequency
His-tagged CD47 [10] = target: T2, His-tagged CD47; assay: IC50 (nM) Frequency as grade, blocking His-tagged CD47 binding to SIRPα-CHO cells; legend ++: >2 nM and <2.7 nM
[11] = target: T1, human CD47 expressed on cells (CD47 …); assay: EC50 (nM) as grade, flow cytometry, Fab on HL60 cells; legend +: >7 nM
[12] = target: T3, biotin labelled polyhistidine tagged …; assay: IC50 (nM) as grade, Fab blocking biotinylated CD47 binding to SIRPα-CHO cells; legend ++: >10 nM and <65 nM

Binder	EC50 (read off the curve) [1]	IC50 (read off the curve) (His-tagged CD47 [2])	EC50 [3]	IC50 (read off the curve) [4]	IC50 (read off the curve) (His-tagged CD47 [5])	EC50 [6]	IC50 (His-tagged CD47 [7])	IC50 [8]	EC50 (read off the curve) [9]	IC50 (His-tagged CD47 [10])	EC50 [11]	IC50 [12]
ABU9 (Fab) (Fab, V domains shown, Phage-derived Fab: murine VL and VH fused to human CL and CH1) VH: EVQLQQSGPELVKPGASVKLSCKASGFTFTNYYIHWVKQRPGQGPEWIGWIYLGSGNTKYNEKFKGKATLTADTSSSTAYLQLSTLISEDSAVYYCARYDYDLYLDSWGQGTTVTVSS VL: DIKMNQSPSSLSASLGDTITITCHASQNINVWLSWYQQKPGNIPKLLIYKASNLHTGVPSRFSGSGSGTGFTLTISSLQPEDIATYYCQQGQSYPLTFGAGTKLELK	~2 nM	~2 nM	1 to 7 nM	~9 nM	~3 nM	< 5 nM	< 2 nM	< 10 nM	~6 nM	2 to 2.7 nM	–	–
ABU14 (Fab) (Fab, V domains shown, Phage-derived Fab: murine VL and VH fused to human CL and CH1) VH: EVQLQQSGPELVKPGASVKISCKASGYSFTNYHIHWVKQRPGQGLEWIGWIYPGSGNTKYNEKFKGMAILTADTSSSTAYMQLSSLTSEDSAVYYCARYDYDLYLHSWGQGTTVTVSS VL: DIQINQSPSSLSASLGDTITITCHASQNINVWLSWYQQKPGNIPKLLIYKASNLHTGVPSRFSGSGSGTGFTLTISSLQPEDIATYYCQQGQSYPLTFGAGTKLEIK	~4 nM	~2 nM	–	~20 nM	~3 nM	< 5 nM	< 2 nM	–	~10 nM	2 to 2.7 nM	> 7 nM	10 to 65 nM
